Source: publication PMC3317646, “Interaction of Chandipura Virus N and P Proteins: Identification of Two Mutually Exclusive Domains of N Involved in Interaction with P” (PLoS ONE, 2012)

How the values were obtained:
Settings in all cases: both partners purified
[1] = biological target: T1, N(1/180–265/422), bacterially expressed (Chandipura virus, UniProt P11211 1-422, N(1/180–265/422)); assay: pull-down; His-tag co-elution after 1% DOC treatment of the N variants and dialysis against the binding buffer in presence of His-P (N variants monomeric); Ni-NTA agarose, eluted with 250 mM imidazole
T1 construct: also called middle deletant; source: E. coli BL21(DE3) or BL21(DE3)pLysS, purified (anion exchange, MonoQ 5/50 GL)
T1 sequence: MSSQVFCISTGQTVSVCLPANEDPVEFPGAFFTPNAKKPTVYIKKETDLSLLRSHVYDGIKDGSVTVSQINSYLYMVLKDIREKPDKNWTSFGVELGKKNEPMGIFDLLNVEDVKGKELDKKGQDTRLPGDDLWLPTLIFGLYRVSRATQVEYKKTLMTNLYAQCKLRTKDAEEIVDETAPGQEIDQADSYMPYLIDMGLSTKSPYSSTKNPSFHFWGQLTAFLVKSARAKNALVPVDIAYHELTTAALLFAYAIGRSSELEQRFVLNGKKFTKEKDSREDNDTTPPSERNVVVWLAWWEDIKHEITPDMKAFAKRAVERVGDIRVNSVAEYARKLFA

[2] = biological target: T2, N(1–320), bacterially expressed (Chandipura virus, UniProt P11211 1-320); assay: as above
T2 construct: Chandipura virus nucleocapsid protein N, residues 1-320; also called N(1–320)^0 (monomer after DOC treatment); source: E. coli BL21(DE3) or BL21(DE3)pLysS, purified (anion exchange, MonoQ 5/50 GL)
T2 sequence: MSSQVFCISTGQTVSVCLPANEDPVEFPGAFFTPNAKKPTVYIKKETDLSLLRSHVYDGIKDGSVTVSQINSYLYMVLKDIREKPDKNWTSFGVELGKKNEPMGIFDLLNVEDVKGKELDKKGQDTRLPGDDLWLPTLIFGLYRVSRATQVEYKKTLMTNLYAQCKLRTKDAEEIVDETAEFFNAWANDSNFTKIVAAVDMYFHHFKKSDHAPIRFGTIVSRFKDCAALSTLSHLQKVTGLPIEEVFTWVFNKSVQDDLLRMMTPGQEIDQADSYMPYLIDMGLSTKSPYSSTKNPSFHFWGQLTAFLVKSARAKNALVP

[3] = biological target: T3, N(22–422), bacterially expressed (Chandipura virus, UniProt P11211 22-422); assay: pull-down; His-tag co-elution: N proteins not treated with DOC incubated with 6×His-P in 50 mM Tris-Cl pH 8, 100 mM NaCl, 0.1% Triton X-100, 10 mM imidazole, 30 min at 4°C; bound to Ni-NTA agarose, eluted with 250 mM imidazole
T3 construct: source: E. coli BL21(DE3) or BL21(DE3)pLysS, purified (anion exchange, MonoQ 5/50 GL)
T3 sequence: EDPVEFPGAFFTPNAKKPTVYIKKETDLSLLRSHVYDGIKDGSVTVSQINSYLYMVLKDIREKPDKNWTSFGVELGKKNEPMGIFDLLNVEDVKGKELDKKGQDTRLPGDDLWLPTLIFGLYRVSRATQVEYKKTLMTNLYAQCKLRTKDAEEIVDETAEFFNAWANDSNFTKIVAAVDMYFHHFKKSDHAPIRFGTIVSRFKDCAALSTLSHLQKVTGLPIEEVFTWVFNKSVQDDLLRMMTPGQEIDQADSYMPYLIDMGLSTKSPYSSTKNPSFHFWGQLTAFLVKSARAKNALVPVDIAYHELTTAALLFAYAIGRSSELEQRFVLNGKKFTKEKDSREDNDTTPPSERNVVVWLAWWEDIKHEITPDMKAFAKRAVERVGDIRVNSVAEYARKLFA

[4] = biological target: T4, N(1–390), bacterially expressed (Chandipura virus, UniProt P11211 1-390); assay: as above
T4 construct: Chandipura virus nucleocapsid protein N, residues 1-390; source: E. coli BL21(DE3) or BL21(DE3)pLysS, purified (anion exchange, MonoQ 5/50 GL)
T4 sequence: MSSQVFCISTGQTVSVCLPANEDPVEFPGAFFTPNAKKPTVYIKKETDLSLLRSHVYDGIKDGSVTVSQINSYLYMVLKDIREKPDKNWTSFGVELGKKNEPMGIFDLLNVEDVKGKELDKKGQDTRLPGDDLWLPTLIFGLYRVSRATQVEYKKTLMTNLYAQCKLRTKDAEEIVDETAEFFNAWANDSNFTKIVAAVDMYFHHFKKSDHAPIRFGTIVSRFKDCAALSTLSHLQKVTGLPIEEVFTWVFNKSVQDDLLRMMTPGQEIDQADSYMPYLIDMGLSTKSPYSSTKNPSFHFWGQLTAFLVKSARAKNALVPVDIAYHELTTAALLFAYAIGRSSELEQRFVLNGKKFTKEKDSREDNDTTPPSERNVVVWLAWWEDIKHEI

[5] = biological target: T5, Chandipura virus nucleocapsid protein (N), wild-type, untagged, bacterially expressed (Chandipura virus, UniProt P11211 1-422); assay: as above
T5 construct: Chandipura virus nucleocapsid protein N, full-length untagged (pET3a-NC); Oligomeric (nucleocapsid-like rings) as purified; monomeric after 1% DOC; also called CHPV N; wild-type N
T5 sequence: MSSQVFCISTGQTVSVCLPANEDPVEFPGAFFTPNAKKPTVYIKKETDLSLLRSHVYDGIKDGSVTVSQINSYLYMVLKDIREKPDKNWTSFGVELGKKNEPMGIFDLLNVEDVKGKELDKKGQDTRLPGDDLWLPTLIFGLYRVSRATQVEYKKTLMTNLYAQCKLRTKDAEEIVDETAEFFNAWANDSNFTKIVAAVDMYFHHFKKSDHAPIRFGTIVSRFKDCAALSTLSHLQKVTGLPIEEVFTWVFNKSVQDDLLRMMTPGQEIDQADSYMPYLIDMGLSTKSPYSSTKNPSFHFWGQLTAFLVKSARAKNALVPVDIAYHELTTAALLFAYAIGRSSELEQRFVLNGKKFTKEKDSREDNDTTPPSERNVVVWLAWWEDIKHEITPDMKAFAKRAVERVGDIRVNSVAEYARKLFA

[6] = biological target: T6, N(48–422), bacterially expressed (Chandipura virus, UniProt P11211 48-422); assay: as above
T6 construct: source: E. coli BL21(DE3) or BL21(DE3)pLysS, purified (anion exchange, MonoQ 5/50 GL)
T6 sequence: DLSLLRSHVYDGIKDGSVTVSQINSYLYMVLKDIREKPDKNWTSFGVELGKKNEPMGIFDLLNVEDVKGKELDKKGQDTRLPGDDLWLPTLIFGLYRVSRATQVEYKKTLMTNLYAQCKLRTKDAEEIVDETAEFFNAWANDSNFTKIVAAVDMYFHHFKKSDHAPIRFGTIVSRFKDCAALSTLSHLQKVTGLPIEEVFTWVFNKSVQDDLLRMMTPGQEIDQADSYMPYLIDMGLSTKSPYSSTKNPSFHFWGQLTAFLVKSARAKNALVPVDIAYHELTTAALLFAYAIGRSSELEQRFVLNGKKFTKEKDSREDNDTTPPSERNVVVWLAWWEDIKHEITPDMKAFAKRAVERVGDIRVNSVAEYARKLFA

Measured: binding result

B1: N-terminal six histidine tagged P protein of Chandipura virus (His-P) (natural protein)
chain: MEDSQLYQALKNYPKLQDTLDSIENLEDDTKSEPSECGSPTERGIPSYYLAEELDECEEEDSEEDDDNLPTEIPDPPTVDMLEAIMEDEIDDTAYQVHFEAKQTWKPVIETGGNERGKFTLSVPQNLSALQLLQWETGIHALAERLGGCRLLQISTRGTRDGIEFTVRETPCVSPASDPIPSTSRSSSIASNVSTRQTESPGSKSNTSLGIPEAPANLIDMGAIDKEFILAAISPSDPPYKNTLRNLFGSGDSFEQYNQTGIYSLKELVIAGLKRKGIYNRIRIRCHLEPQFN
notes: Chandipura virus phosphoprotein P, full length (pET20b-P); pET20b usually adds a C-terminal His tag (surmise); also called 6×His-P; pET20b-P; source: bacterially expressed, purified (Ni-NTA agarose); not shown: His6, N-terminal, kept
binds: all assays above
